Consider three molecules from US20260116966A1 (KEYMED BIOSCIENCES CHENGDU, published 2026).

In assay [1] the target is T1, human GPRC5D (human, UniProt Q9NZD1 1-345). As to the kind of experiment: cell-based or functional assay.
The target of assay [2] is T2, CD3 receptor on the surface of Jurkat cells (human, UniProt P07766 23-207). As to the kind of experiment: cell-based or functional assay.
In assay [3] the target is T1, human GPRC5D. Description: cell-based or functional assay. The source holds these as a separate data set.
Assay [4] deals with T1, human GPRC5D. Description: flow cytometry, MM.1R cells. (Flow cytometry measures light scatter and fluorescence of single cells or particles in a stream.)
Description: The cell suspension of MM.1R cells in logarithmic growth phase was adjusted to a concentration of 5×10⁵ cells/mL, and 100 μL per well was added to a 96-well U-shaped plate, and centrifuged at 300 g for 5 min. The supernatant was discarded. […] The primary antibody was washed away, and 50 μL/well Alexa Fluro647 labeled goat anti-human IgG FC (1:300 dilution) was added, and incubated on ice for 20 min. After washing once, 50 μL/well of PI was added, incubated for 5 min, and detected by flow cytometry.
Assay [5] concerns the target T2, CD3 receptor on the surface of Jurkat …. Description: flow cytometry, Jurkat cells.
Description: The cell concentration was adjusted with 4% calf serum to 5×10⁵ cells/mL. 100 μL per well was added to a 96-well U-shaped plate, and centrifuged at 300 g. The supernatant was removed. […] The secondary antibody 50 μL/well of Alexa Fluro647 labeled goat anti-human IgG Fc (1:300 dilution) was added, and incubated on ice for 20 min. After washing once, 50 μL/well of PI was added, incubated for 5 min, and detected by flow cytometry.
In assay [6] the target is T1, human GPRC5D. Description: flow cytometry, HEK293-hGPRC5D cells.
Description: (§1) HEK293-hGPRC5D and HEK293-cyGPRC5D stably transfected cells in logarithmic growth phase were respectively adjusted to a cell density of 5×10⁵ cells/mL. Then, 100 μl/well of the cell suspension was added to a 96-well U-shaped plate, and centrifuged at 300 g for 5 min. The supernatant was discarded. […] The secondary antibody 50 μL/well of Alexa Fluro647 labeled goat anti-human IgG Fe (1:300 dilution) was added, and incubated on ice for 20 min. After washing once, 50 μL/well of PI solution (1:300) was added, incubated for 5 min, and detected by flow cytometry.
Assay [7] has as its target T1, human GPRC5D. Description: flow cytometry, HEK293-hGPRC5D cells. The source holds these as a separate data set.
Description: Cell suspensions of HEK293-hGPRC5D and HEK293-hBCMA stably transfected cells in logarithmic growth phase were adjusted to 5×10⁵ cells/ml. Then, 100 μl/well of the cell suspension was added to a 96-well U-shaped plate, and centrifuged at 300 g for 5 min. The supernatant was discarded. 100 μL per well of serially diluted antibody was added, and incubated at 4° C. for 60 min. The secondary antibody 50 μL/well of Alexa Fluro647 labeled goat anti-human IgG Fc (1:300 dilution) was added, and incubated on ice for 20 min. After washing once, 50 μL/well of PI solution was added, incubated for 5 min, and detected by flow cytometry.
Assay [8] addresses T3, Cynomolgus GPRC5D (Cynomolgus, UniProt Q9NZD1 1-343 (human entry)).
T3 construct: Full length, on stably transfected cells (HEK293-cyGPRC5D, CHO-cyGPRC5D); also called cyGPRC5D
T3 chain: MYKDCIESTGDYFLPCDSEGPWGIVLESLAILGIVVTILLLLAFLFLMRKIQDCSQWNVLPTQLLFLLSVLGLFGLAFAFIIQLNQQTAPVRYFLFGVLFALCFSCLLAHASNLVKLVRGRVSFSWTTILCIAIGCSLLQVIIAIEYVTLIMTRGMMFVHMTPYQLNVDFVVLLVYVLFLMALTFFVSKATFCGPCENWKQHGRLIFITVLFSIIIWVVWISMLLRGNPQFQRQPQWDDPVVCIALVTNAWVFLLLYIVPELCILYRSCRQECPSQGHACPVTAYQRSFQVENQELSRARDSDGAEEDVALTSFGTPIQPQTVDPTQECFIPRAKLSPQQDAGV
Description: flow cytometry, HEK293-cyGPRC5D cells.
Description: as §1

For assay [9], the target named is T3, Cynomolgus GPRC5D. As to the kind of experiment: flow cytometry, HEK293-cyGPRC5D cells against HEK293-hGPRC5D cells.
Description: as §1
In assay [10] the target is T4, human BCMA on HEK293-hBCMA cells (human, UniProt Q02223 1-184).
T4 sequence (looked up): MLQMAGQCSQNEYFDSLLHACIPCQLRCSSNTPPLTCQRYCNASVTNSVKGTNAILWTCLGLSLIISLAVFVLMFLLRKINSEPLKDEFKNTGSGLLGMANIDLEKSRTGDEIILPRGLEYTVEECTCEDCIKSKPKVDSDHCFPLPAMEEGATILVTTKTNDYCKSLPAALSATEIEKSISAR
Description: cell-based or functional assay.

Assay [11] concerns the target T4, human BCMA on HEK293-hBCMA cells. As to the kind of experiment: flow cytometry, HEK293-hBCMA cells.
The target of assay [12] is T5, biotinylated BCMA recombinant antigen (Homo sapiens (Human), UniProt Q02223 1-54, Biotinylated; site and chemistry not stated. The letters do not carry the biotin.).
T5 sequence: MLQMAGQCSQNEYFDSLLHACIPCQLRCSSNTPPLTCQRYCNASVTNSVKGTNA
As to the kind of experiment: BLI, biotinylated antigen on SA probe, antibody as analyte.

The target of assay [13] is T6, biotinylated CD3 recombinant antigen (CD3εγ) (Homo sapiens (Human), UniProt P07766 23-126; P09693 23-116, Biotinylated; site and chemistry not stated. The letters do not carry the biotin.).
T6 construct: also called CD3e antigen; copies: 1 + 1
The assay is described as above.

Where only a bound is given, the exact number is not on record here.

T2 sequence (P07766 23-207): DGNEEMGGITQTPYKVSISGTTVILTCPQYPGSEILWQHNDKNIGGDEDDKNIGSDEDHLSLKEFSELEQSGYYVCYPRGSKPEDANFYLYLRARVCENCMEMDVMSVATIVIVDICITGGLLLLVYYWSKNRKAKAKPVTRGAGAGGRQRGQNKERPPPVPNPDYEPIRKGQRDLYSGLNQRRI
T1 sequence (Q9NZD1 whole entry): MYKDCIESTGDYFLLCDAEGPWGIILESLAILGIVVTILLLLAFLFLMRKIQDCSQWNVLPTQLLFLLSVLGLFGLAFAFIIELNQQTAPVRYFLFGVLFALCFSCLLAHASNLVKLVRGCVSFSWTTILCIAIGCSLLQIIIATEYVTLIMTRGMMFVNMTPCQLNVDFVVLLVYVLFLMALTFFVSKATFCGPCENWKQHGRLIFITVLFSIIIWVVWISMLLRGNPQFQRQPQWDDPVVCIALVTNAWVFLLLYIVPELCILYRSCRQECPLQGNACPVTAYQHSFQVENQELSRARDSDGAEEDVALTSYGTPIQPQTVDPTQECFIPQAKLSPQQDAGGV
T6 sequence (P07766 23-126 limits assumed, chain 1 of 2): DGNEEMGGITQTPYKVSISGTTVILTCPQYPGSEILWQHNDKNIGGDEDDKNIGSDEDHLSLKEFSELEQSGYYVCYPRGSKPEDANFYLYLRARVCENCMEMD
T6 sequence (P09693 23-116 limits assumed, chain 2 of 2): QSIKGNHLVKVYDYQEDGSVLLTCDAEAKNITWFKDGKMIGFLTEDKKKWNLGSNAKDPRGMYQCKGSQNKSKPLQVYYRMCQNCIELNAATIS

B1: 2F1 × CD3 H4K5 GPRC5D×CD3 κλ bispecific antibody variant (bispecific antibody, human IgG4 S228P, kappa, lambda)
heavy 1: QVQLVQSGAEVKKPGSSVKVSCKASGYSFTGYTMNWVREAPGQGLEWMGLINPYNGGTRYNQKFQGRVTITADESTSTAYMELSSLRSEDTAVYYCARWALRYGMDYWGQGTLVTVSSASTKGPSVFPLAPCSRSTSESTAALGCLVKDYFPEPVTVSWNSGALTSGVHTFPAVLQSSGLYSLSSVVTVPSSSLGTKTYTCNVDHKPSNTKVDKRVESKYGPPCPPCPAPEFEGGPSVFLFPPKPKDTLMISRTPEVTCVVVDVSQEDPEVQFNWYVDGVEVHNAKTKPREEQFNSTYRVVSVLTVLHQDWLNGKEYKCKVSNKGLASSIEKTISKAKGQPREPQVCTLPPSQEEMTKNQVSLSCAVKGFYPSDIAVEWESNGQPENNYKTTPPVLDSDGSFFLVSKLTVDKSRWQEGNVFSCSVMHEALHNHYTQKSLSLSLGK
light 1: DIQMTQSPSSLSASVGDRVTITCQASQNVGTNVAWYQKKPGQAPKALIYSASYLNSGVPSRFSGSGSGTDFTFTISSLQPEDIATYFCQQYNSYLLTFGGGTKVEIKRTVAAPSVFIFPPSDEQLKSGTASVVCLLNNFYPREAKVQWKVDNALQSGNSQESVTEQDSKDSTYSLSSTLTLSKADYEKHKVYACEVTHQGLSSPVTKSFNRGEC
heavy 2: EVQLVESGGGLVQPGGSLRLSCAASGFTFNTYAMNWVRKAPGKGLEWVGRIRSKYNNYATYYADSVKDRFTISRDDSKNSLYLQMNSLKTEDTAVYYCVRHGNFGNSYVSWFAYWGQGTLVTVSSASTKGPSVFPLAPCSRSTSESTAALGCLVKDYFPEPVTVSWNSGALTSGVHTFPAVLQSSGLYSLSSVVTVPSSSLGTKTYTCNVDHKPSNTKVDKRVESKYGPPCPPCPAPEFEGGPSVFLFPPKPKDTLMISRTPEVTCVVVDVSQEDPEVQFNWYVDGVEVHNAKTKPREEQFNSTYRVVSVLTVLHQDWLNGKEYKCKVSNKGLASSIEKTISKAKGQPREPQVYTLPPCQEEMTKNQVSLWCLVKGFYPSDIAVEWESNGQPENNYKTTPPVLDSDGSFFLYSKLTVDKSRWQEGNVFSCSVMHEALHNHYTQKSLSLSLGK
light 2: QAVVTQEPSLTVSPGGTVTLTCRSSTGAVTTSNYANWVQEKPGQAPRGLIGGTNKRAPWTPARFSGSLLGGKAALTITGAQAEDEAEYYCVLWYSNLWVFGGGTKLTVLGQPKAAPSVTLFPPSSEELQANKATLVCLISDFYPGAVTVAWKADSSPVKAGVETTTPSKQSNNKYAASSYLSLTPEQWKSHRSYSCQVTHEGSTVEKTVAPTECS
notes: also called h2F1 H4K5
One may read the EC50 as the concentration needed to bring the measured effect to its halfway point. Read a low EC50 as greater potency. For B1, the “TDCC, EC50 (nM), MM.1R” value with human GPRC5D [1] was determined as 0.008 nM. Besides, the “Jurkat-NFAT-luc, EC50” value in assay [2] turned out to be 0.662 nM. Moreover, the “TDCC EC50 (nM), HEK293-hGPRC5D” value with human GPRC5D [3] was found to be 0.014 nM. Further, the “TDCC EC50 (nM), MM.1S” value with human GPRC5D [3] is 0.017 nM. The “TDCC EC50 (nM), NCI-H929” value in the assay with human GPRC5D [3] was 0.036 nM. The EC50 with human GPRC5D [4] turned out to be 15.7 nM; in assay [5], 1.9 nM; with human GPRC5D [6] it was 2.8 nM; with human GPRC5D [7] it was 8.4 nM; in the assay with Cynomolgus GPRC5D [8], 12.8 nM. Besides, the “fold difference of affinity, Cynomolgus GPRC5D against human GPRC5D” value with Cynomolgus GPRC5D [9] was below 5 fold.

B2: BCMA × CD3 κλ005 bispecific antibody (bispecific antibody, human IgG4 S228P, kappa, lambda)
heavy 1: QVQLVQSGSELKKPGASVKVSCKASGYIFTNFGMNWVREAPGQGLEWMGWINTYTGEQIYADGFTGRFVFSLDTSVSTAYLQISSLKAEDTAVYFCARGEIYYGYDVGFVYWGQGTLVTVSS
light 1: DIVLTQSPASLAVSPGQRATITCRASKSVSTSGYSYMHWYQKKPGQPPKLLIYLASNLESGVPARFSGSGSGTDFTLTINPVEAEDTANYYCQHSRELPWTFGQGTKVEIKRTVAAPSVFIFPPSDEQLKSGTASVVCLLNNFYPREAKVQWKVDNALQSGNSQESVTEQDSKDSTYSLSSTLTLSKADYEKHKVYACEVTHQGLSSPVTKSFNRGEC
heavy 2: EVQLVESGGGLVQPGGSLRLSCAASGFTFNTYAMNWVRKAPGKGLEWVGRIRSKYNNYATYYADSVKDRFTISRDDSKNSLYLQMNSLKTEDTAVYYCVRHGNFGNSYVSWFAYWGQGTLVTVSSASTKGPSVFPLAPCSRSTSESTAALGCLVKDYFPEPVTVSWNSGALTSGVHTFPAVLQSSGLYSLSSVVTVPSSSLGTKTYTCNVDHKPSNTKVDKRVESKYGPPCPPCPAPEFEGGPSVFLFPPKPKDTLMISRTPEVTCVVVDVSQEDPEVQFNWYVDGVEVHNAKTKPREEQFNSTYRVVSVLTVLHQDWLNGKEYKCKVSNKGLASSIEKTISKAKGQPREPQVYTLPPCQEEMTKNQVSLWCLVKGFYPSDIAVEWESNGQPENNYKTTPPVLDSDGSFFLYSKLTVDKSRWQEGNVFSCSVMHEALHNHYTQKSLSLSLGK
light 2: QAVVTQEPSLTVSPGGTVTLTCRSSTGAVTTSNYANWVQEKPGQAPRGLIGGTNKRAPWTPARFSGSLLGGKAALTITGAQAEDEAEYYCVLWYSNLWVFGGGTKLTVLGQPKAAPSVTLFPPSSEELQANKATLVCLISDFYPGAVTVAWKADSSPVKAGVETTTPSKQSNNKYAASSYLSLTPEQWKSHRSYSCQVTHEGSTVEKTVAPTECS
notes: they are not tied to the name κλ005 in one sentence; also called BCMA×CD3 bispecific antibody
For orientation: Kd means the constant that tells how readily two partners part at equilibrium. For the molecule B2, the “TDCC EC50 (nM), HEK293-hBCMA” value in assay [10] came to 0.015 nM. Moreover, it took 1.9 nM to reach a half-maximal effect in assay [11] (EC50). Moreover, the Kd came to 1.1 nM in assay [12] and 45.4 nM in assay [13].

B3: 2F1 × CD3 H4K7 GPRC5D×CD3 κλ bispecific antibody variant (bispecific antibody, human IgG4 S228P, kappa, lambda)
heavy 1: QVQLVQSGAEVKKPGSSVKVSCKASGYSFTGYTMNWVREAPGQGLEWMGLINPYNGGTRYNQKFQGRVTITADESTSTAYMELSSLRSEDTAVYYCARWALRYGMDYWGQGTLVTVSSASTKGPSVFPLAPCSRSTSESTAALGCLVKDYFPEPVTVSWNSGALTSGVHTFPAVLQSSGLYSLSSVVTVPSSSLGTKTYTCNVDHKPSNTKVDKRVESKYGPPCPPCPAPEFEGGPSVFLFPPKPKDTLMISRTPEVTCVVVDVSQEDPEVQFNWYVDGVEVHNAKTKPREEQFNSTYRVVSVLTVLHQDWLNGKEYKCKVSNKGLASSIEKTISKAKGQPREPQVCTLPPSQEEMTKNQVSLSCAVKGFYPSDIAVEWESNGQPENNYKTTPPVLDSDGSFFLVSKLTVDKSRWQEGNVFSCSVMHEALHNHYTQKSLSLSLGK
light 1: DIQMTQSPSSLSASVGDRVTITCQASQNVGTNVAWYQKKPGQAPKALIYSASYRNSGVPSRFSGSGSGTDFTFTISSLQPEDIATYFCQQYNSYLLTFGGGTKVEIKRTVAAPSVFIFPPSDEQLKSGTASVVCLLNNFYPREAKVQWKVDNALQSGNSQESVTEQDSKDSTYSLSSTLTLSKADYEKHKVYACEVTHQGLSSPVTKSFNRGEC
heavy 2: EVQLVESGGGLVQPGGSLRLSCAASGFTFNTYAMNWVRKAPGKGLEWVGRIRSKYNNYATYYADSVKDRFTISRDDSKNSLYLQMNSLKTEDTAVYYCVRHGNFGNSYVSWFAYWGQGTLVTVSSASTKGPSVFPLAPCSRSTSESTAALGCLVKDYFPEPVTVSWNSGALTSGVHTFPAVLQSSGLYSLSSVVTVPSSSLGTKTYTCNVDHKPSNTKVDKRVESKYGPPCPPCPAPEFEGGPSVFLFPPKPKDTLMISRTPEVTCVVVDVSQEDPEVQFNWYVDGVEVHNAKTKPREEQFNSTYRVVSVLTVLHQDWLNGKEYKCKVSNKGLASSIEKTISKAKGQPREPQVYTLPPCQEEMTKNQVSLWCLVKGFYPSDIAVEWESNGQPENNYKTTPPVLDSDGSFFLYSKLTVDKSRWQEGNVFSCSVMHEALHNHYTQKSLSLSLGK
light 2: QAVVTQEPSLTVSPGGTVTLTCRSSTGAVTTSNYANWVQEKPGQAPRGLIGGTNKRAPWTPARFSGSLLGGKAALTITGAQAEDEAEYYCVLWYSNLWVFGGGTKLTVLGQPKAAPSVTLFPPSSEELQANKATLVCLISDFYPGAVTVAWKADSSPVKAGVETTTPSKQSNNKYAASSYLSLTPEQWKSHRSYSCQVTHEGSTVEKTVAPTECS
notes: also called h2F1 H4K7
B3: the “TDCC, EC50 (nM), MM.1R” value with human GPRC5D [1] was 0.009 nM. Moreover, the “Jurkat-NFAT-luc, EC50” value in assay [2] came to 0.774 nM. Moreover, the EC50 was 10.2 nM in the assay with human GPRC5D [4], 7.2 nM in assay [5], 2.3 nM in the assay with human GPRC5D [6] and 6.6 nM in the assay with Cynomolgus GPRC5D [8]. Moreover, the “fold difference of affinity, Cynomolgus GPRC5D against human GPRC5D” value with Cynomolgus GPRC5D [9] was below 5 fold.
